“Also recorded” adds a separate entry of the source. Marks after values point to notes of the source that are not given here.

Data on 25 molecules can be found in patent publication US6451762B1 (Novo Nordisk A/S, priority 1997, dated 2002).

Series [1] can be described thus: Gel filtration method 2 on Superose 6HR (HPLC, 37° C.). It counts as physicochemical. The settings on record: 140 mM NaCl, 10 mM tris, pH 7.4; for KAV (Superose 6HR) 2Zn^2+/6 ins: 2 Zn2+/6 ins; for KAV (Superose 6HR) 3Zn^2+/6 ins: 3 Zn2+/6 ins; for KAV (Superose 6HR): standards. How it is done:
An alternative method to measure the capability of insulin derivatives of forming soluble high molecular weight aggregates was developed, suitable for HPLC equipment. The column dimensions, injection volume, and flow rate correspond to the first method, whereas the temperature is increased to 37° C. and the phosphate buffer is changed to trishydroxymethylaminomethan hydrochloride and additional sodium chloride. The aggregated state of insulin is defined to elute before the gel filtration standard aldolase like in the first method.

A short description of series [2]: Disappearance after subcutaneous injection in pigs. The settings on record: pig, in vivo, sc. From the text: The gel filtration experiment using the conditions prescribed in this section is the direct physico-chemical method to reveal the potential aggregate formation property of an insulin derivative. Disappearance after subcutaneous injection in pigs reflects the combination of the albumin binding and polymer formation properties of the insulin derivative, besides a variety of biological factors.

Series [3] in a line: Gel filtration on Sephacryl S-300 HR (aggregate formation, method 1). The settings on record: for KAV: Sephacryl S-300 HR; for formation of high molecular weight soluble aggregates: gel filtration at neutral pH, formulation used (Table 1). The arrangement: key to KAV: KAV=(VE-V0)/(VT-V0); fraction of available elution volume. It counts as physicochemical. How it is done:
A pH neutral aqueous buffer system is used in the gel filtration and the insulin derivatives in the aggregated state are applied to the column in the form of a pharmaceutical preparation at a concentration of 600 nmol insulin/ml. […] However, when the actual state of aggregation in a pharmaceutical preparation is to be assessed, the medium of the preparation, exclusive the Zn^2+ which is insulin bound, is used as the eluent for the gel filtration. A column of 28×1 cm is eluted at a rate of 15 ml/h. Insulin derivatives were injected (200 μl) as a standard formulation comprising 600 μM derivative, 200 or 300 μM Zn^2+, 20 mM NaCl (or varied), 16 mM phenol, 16 mM m-cresol, 7 mM sodium phosphate at pH 7.5. Exclusion limit of Sephacryl® S-300 HR is stated by the manufacturer, Pharmacia, as a molecular weight of 1,500 kDa for globular proteins and 400 kDa for linear dextrans. In practice the elution of solutes of different size is characterised by the available volume as KAV values: KAV=(VE-V0)/(VT-V0) where VE is elution volume, V0 is void volume, e.g. elution volume of blue dextran, VT is total volume. Thus, the KAV value is independent of column dimension. […]
(In general: In gel filtration, larger molecules generally elute earlier.)

A further series addresses Albumin (Homo sapiens, UniProt P02768).
A short description of series [4]: Gel filtration on Sephacryl S-300 HR (aggregate formation, method 1). It counts as physicochemical. The arrangement: key to KAV: KAV=(VE-V0)/(VT-V0); fraction of available elution volume. The conditions noted are these: Sephacryl S-300 HR, pH 7.4 eluent; Zinc free.
The mark [5] stands for this setting: eluent 125 mM NaCl, 20 mM sodium phosphate pH 7.4, sample 600 μM derivative, 200 μM Zn2+, 0-20 mM NaCl, phenol, m-cresol, pH 7.5.
Where [6] appears, read: pH 7.4 eluent, standards applied dissolved in water.

On to “Lys^B29(N^ε-lithocholoyl-β-Ala-) des(B30) HI”, for which, in series [1], the “KAV (Superose 6HR) 2Zn^2+/6 ins” value is 0.00 and the “KAV (Superose 6HR) 3Zn^2+/6 ins” value amounted to 0.13.
Consider “Lys^B29(N^εtetradecanoyl) des(B30) human insulin [Lys^B29(N^ε tetradecanoyl) des(B30), reference compound]”, for which the “Disappearance T50%” value in series [2] stood at 14.3 h. Further, in series [3] (setting [5]), the KAV worked out at 0.51. The “formation of high molecular weight soluble aggregates” value (“formation” for short) in series [3] was “incapable of forming soluble high molecular weight aggregates”. In series [1], the “KAV (Superose 6HR) 2Zn^2+/6 ins” value is listed as 0.58 and the “KAV (Superose 6HR) 3Zn^2+/6 ins” value is given as 0.56.
Turning to “Albumin: molecular size standard, Mw 67 kDa [reference compound]”, the KAV in series [3] (setting [6]) is about 0.38.
For the molecule “Lys^B29(N^ε-lithocholoyl-α-amido-γ-Glu-) des(B30) HI”, the “Disappearance in pigs, T50%” value in series [2] is over 34 h. Moreover, the “Albumin binding Kass” value in the series with Albumin was 0.23 10^5M^−1. Moreover, in series [1], the “KAV (Superose 6HR) 2Zn^2+/6 ins” value is −0.02 and the “KAV (Superose 6HR) 3Zn^2+/6 ins” value is on record as 0.00.
Take “Lys^B29(N^εlithocholyl-α-Glu-) des(B30) human insulin”: the “Disappearance T50%” value in series [2] was 11.8 h. In series [3] (setting [5]), this molecule gave a KAV of 0.53. Also, the “formation” value in series [3] was “only the first forms aggregates; also recorded: incapable of forming soluble high molecular weight aggregates”. In the series with Albumin, the “Albumin binding Kass” value was 0.3 × 10^5 (mol/l)^−1.
On to “Aldolase: molecular size standard, Mw 158 kDa [reference compound]”, for which, in series [3] (setting [6]), the KAV is on record as about 0.32. Besides, the “KAV (Superose 6HR)” value in series [1] is given as 0.50.
Take Lys^B29(N^ε-cholanoyl-) des(B30) HI: the “Disappearance in pigs, T50%” value in series [2] came out at 20.1 h. Moreover, the “Albumin binding Kass” value in the series with Albumin is 0.48 10^5M^−1. In series [1], the “KAV (Superose 6HR) 2Zn^2+/6 ins” value came out at 0.40 and the “KAV (Superose 6HR) 3Zn^2+/6 ins” value is 0.17.
On the same counts, the results for “Lys^B29(N^ε-hexadecanoyl-α-amido-γ-Glu-) des(B30) HI” are 15.3 h, 0.56 10^5M^−1, 0.38 and 0.41.
In the case of Lys^B29(N^ε lithocholyl, in series [4], the KAV was determined as 0.74.
“Lys^B29(N^ε ω-carboxynonadecanoyl) des(B30)”: the “Disappearance T50%” value in series [2] is listed as 21.9 h. Further, the KAV in series [3] (setting [5]) is recorded as 0.04. Also, the “Albumin binding Kass” value with Albumin is recorded as 36 × 10^5 (mol/l)^−1.
As for “Lys^B29(N^ε-deoxycholoyl-γ-Glu-) des(B30) HI”, the “Disappearance in pigs, T50%” value in series [2] was 13.9 h. The “Albumin binding Kass” value with Albumin is recorded as 0.03 10^5M^−1. Moreover, in series [1], the “KAV (Superose 6HR) 2Zn^2+/6 ins” value is 0.20 and the “KAV (Superose 6HR) 3Zn^2+/6 ins” value was 0.07.
“Lys^B29(N^ε-lithocholoyl-γ-aminobutanoyl-) des(B30) HI”: in series [1], the “KAV (Superose 6HR) 2Zn^2+/6 ins” value turned out to be 0.06 and the “KAV (Superose 6HR) 3Zn^2+/6 ins” value amounted to 0.00.
Take Lys^B29(N^ε-lithocholoyl-) des(B30) HI: the “Disappearance in pigs, T50%” value in series [2] is on record as over 34 h. Besides, the “Albumin binding Kass” value with Albumin is reported as 0.38 10^5M^−1. In series [1], the “KAV (Superose 6HR) 2Zn^2+/6 ins” value was −0.01 and the “KAV (Superose 6HR) 3Zn^2+/6 ins” value came to 0.23.
Regarding Lys^B29(N^ε decanoyl), in series [2], the “Disappearance T50%” value amounted to 5.1 h. Besides, the KAV in series [3] (eluent 125 mM NaCl, 20 mM sodium phosphate pH 7.4, sample 600 μM, 300 μM Zn2+) turned out to be 0.67. For the same molecule, the “Albumin binding Kass” value in the series with Albumin is listed as 0.06 × 10^5 (mol/l)^−1.
Turning to “Lys^B29(N^ε-lithocholoyl-β-Asp-) des(B30) HI”, in series [1], the “KAV (Superose 6HR) 2Zn^2+/6 ins” value is 0.18 and the “KAV (Superose 6HR) 3Zn^2+/6 ins” value came to 0.11.
For “Lys^B29(N^εlithocholyl-γ-Glu-) des(B30) human insulin [Lys^B29(N^ε lithocholyl-γ-Glu-) des(B30)]”, in series [2], the “Disappearance T50%” value worked out at 22.8 h and the “Disappearance in pigs, T50%” value stood at 22.8 h. Further, in series [3] (setting [5]), the KAV is 0.04*. Further, in series [3], the “formation” value is given as “capable of forming soluble high molecular weight aggregates”. Besides, the “formation” value in series [3] (listed as Ly B^29(N^εlithocholyl-γ-Glu-) des(B30) human insulin) is recorded as “capable of forming high molecular weight soluble aggregates”. Moreover, in series [1], the “KAV (Superose 6HR) 2Zn^2+/6 ins” value worked out at 0.00 and the “KAV (Superose 6HR) 3Zn^2+/6 ins” value is −0.01.
For the molecule “Lys^B29(N^ε-dehydrolithocholoyl-) des(B30) HI”, in series [2], the “Disappearance in pigs, T50%” value is recorded as over 34 h. For the same molecule, in the series with Albumin, the “Albumin binding Kass” value is 0.26 10^5M^−1. Also, in series [1], the “KAV (Superose 6HR) 2Zn^2+/6 ins” value is listed as 0.05 and the “KAV (Superose 6HR) 3Zn^2+/6 ins” value worked out at 0.03.
For “B9Asp, B27Glu human insulin [reference compound]”, in series [2], the “Disappearance T50%” value was “(1) h”. Further, the KAV in series [3] (setting [6]) is 0.71; in series [3] (pH 7.4 eluent, standards applied dissolved in water, listed as monomeric form of insulin), “about 0.71”. Also, the “Albumin binding Kass” value in the series with Albumin is given as 0 (mol/l)^−1. In addition, the “KAV (Superose 6HR)” value in series [1] came out at 0.73.
On to Ferritin [reference compound], for which, in series [3] (setting [6]), the KAV stood at 0.19. Besides, the “KAV (Superose 6HR)” value in series [1] amounted to 0.40.
Regarding “Thyroglobulin: molecular size standard, Mw 669 kDa [reference compound]”, the KAV in series [3] (setting [6]) was 0.08. Further, in series [1], the “KAV (Superose 6HR)” value is given as 0.28.
Lys^B29(N^ε cholesteryloxycarbonyl) registered a KAV in series [3] (setting [5]) of 0.00.
Take “Asp^A21 Lys^B29(N^ε-tetradecanoyl-) des(B30) HI”: the “Disappearance in pigs, T50%” value in series [2] was 16.4 h. Moreover, the “Albumin binding Kass” value with Albumin is 0.97 10^5M^−1. For the same molecule, in series [1], the “KAV (Superose 6HR) 2Zn^2+/6 ins” value came to 0.55 and the “KAV (Superose 6HR) 3Zn^2+/6 ins” value turned out to be 0.46.

B1: Ovalbumin: molecular size standard, Mw 43 kDa (protein, UniProt P01012 2-386, looked up)
Ovalbumin: GSIGAASMEFCFDVFKELKVHHANENIFYCPIAIMSALAMVYLGAKDSTRTQINKVVRFDKLPGFGDSIEAQCGTSVNVHSSLRDILNQITKPNDVYSFSLASRLYAEERYPILPEYLQCVKELYRGGLEPINFQTAADQARELINSWVESQTNGIIRNVLQPSSVDSQTAMVLVNAIVFKGLWEKAFKDEDTQAMPFRVTEQESKPVQMMYQIGLFRVASMASEKMKILELPFASGTMSMLVLLPDEVSGLEQLESIINFEKLTEWTSSNVMEERKIKVYLPRMKMEEKYNLTSVLMAMGITDVFSSSANLSGISSAESLKISQAVHAAHAEINEAGREVVGSAEAGVDAASVSEEFRADHPFLFCIKHIATNAVLFFGRCVSP
Take B1: the “KAV (Superose 6HR)” value in series [1] is 0.58.

B2: Catalase: molecular size standard, Mw 232 kDa (protein, UniProt P00432 2-527, looked up)
Catalase: ADNRDPASDQMKHWKEQRAAQKPDVLTTGGGNPVGDKLNSLTVGPRGPLLVQDVVFTDEMAHFDRERIPERVVHAKGAGAFGYFEVTHDITRYSKAKVFEHIGKRTPIAVRFSTVAGESGSADTVRDPRGFAVKFYTEDGNWDLVGNNTPIFFIRDALLFPSFIHSQKRNPQTHLKDPDMVWDFWSLRPESLHQVSFLFSDRGIPDGHRHMNGYGSHTFKLVNANGEAVYCKFHYKTDQGIKNLSVEDAARLAHEDPDYGLRDLFNAIATGNYPSWTLYIQVMTFSEAEIFPFNPFDLTKVWPHGDYPLIPVGKLVLNRNPVNYFAEVEQLAFDPSNMPPGIEPSPDKMLQGRLFAYPDTHRHRLGPNYLQIPVNCPYRARVANYQRDGPMCMMDNQGGAPNYYPNSFSAPEHQPSALEHRTHFSGDVQRFNSANDDNVTQVRTFYLKVLNEEQRKRLCENIAGHLKDAQLFIQKKAVKNFSDVHPEYGSRIQALLDKYNEEKPKNAVHTYVQHGSHLSAREKANL
The molecule B2 displayed a KAV in series [3] (setting [6]) of 0.30.

B3: Ribonuclease: molecular size standard, Mw 13.7 kDa (protein, UniProt P61823 27-150, looked up)
Ribonuclease pancreatic: KETAAAKFERQHMDSSTSAASSSNYCNQMMKSRNLTKDRCKPVNTFVHESLADVQAVCSQKNVACKNGQTNCYQSYSTMSITDCRETGSSKYPNCAYKTTQANKHIIVACEGNPYVPVHFDASV
As to B3, in series [3] (setting [6]), the KAV is given as 0.63. For the same molecule, the “KAV (Superose 6HR)” value in series [1] stood at 0.72.
